Experimental data: the supplement of paper PMC7125110
± gives the standard error. For some of these results: This sample holds only a part of the variants without activity.

B1: glmS ribozyme (parent)
chain: AUAAAAGCGCCAGAACUACAGAAAUGUAGUUGACGAGGAGGAGGUUUAUCGAAUUUUCGGCGGAUGCCUCCAAA

Experiments:
Details in all cases: with glucosamine-6-phosphate
glucosamine-6-phosphate [1] = variants of: B1; test: kcat; higher = faster cleavage; RNA array
Method in brief: (§1)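 Glucosamine-6-phosphate, from 40 μM to 10 mM in HEPES/KCl/Mg(OAc)2 buffer, was flowed over sequenced MiSeq chips carrying barcoded ribozyme variants transcribed in situ by E. coli RNA polymerase. A hybridised Cy3 probe tracked the variants at 37 °C as tiles were imaged over ~14 h. kobs, kcat and KM were obtained by fitting normalised per-tile medians to exponential decays and then applying weighted Michaelis–Menten fits across concentrations.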

glucosamine-6-phosphate [2] = variants of: B1; test: KM; higher = weaker cofactor use; RNA array
Method in brief: as §1

glucosamine-6-phosphate [3] = variants of: B1; test: self-cleavage kobs at 40 uM GlcN6P; higher = faster cleavage; RNA array
Method in brief: as §1

glucosamine-6-phosphate [4] = variants of: B1; test: self-cleavage kobs at 640 uM GlcN6P; higher = faster cleavage; RNA array
Method in brief: as §1

glucosamine-6-phosphate [5] = variants of: B1; test: self-cleavage kobs at 2500 uM GlcN6P; higher = faster cleavage; RNA array
Method in brief: as §1

glucosamine-6-phosphate [6] = variants of: B1; test: self-cleavage kobs at 10000 uM GlcN6P; higher = faster cleavage; RNA array
Method in brief: as §1

glucosamine-6-phosphate [7] = variants of: B1; test: self-cleavage kobs at 160 uM GlcN6P; higher = faster cleavage; RNA array
Method in brief: as §1

Variant | kcat (glucosamine-6-phosphate [1]) | KM (glucosamine-6-phosphate [2]) | self-cleavage kobs at 40 uM GlcN6P (glucosamine-6-phosphate [3]) | self-cleavage kobs at 640 uM GlcN6P (glucosamine-6-phosphate [4]) | self-cleavage kobs at 2500 uM GlcN6P (glucosamine-6-phosphate [5]) | self-cleavage kobs at 10000 uM GlcN6P (glucosamine-6-phosphate [6]) | self-cleavage kobs at 160 uM GlcN6P (glucosamine-6-phosphate [7])
A15C U56A | 0.00477 ± 0.0013 s⁻¹ | 1930 ± 760 µM | 0.000113 ± 1.7e-05 s⁻¹ | 0.00107 ± 0.00016 s⁻¹ | 0.00218 ± 0.0005 s⁻¹ | 0.00482 ± 0.0008 s⁻¹ | 
A15G G62C U69G | 1.74e-05 ± 5.1e-06 s⁻¹ |  |  |  |  |  | 
A15G C16G C71G | 0.000103 ± 1.4e-05 s⁻¹ |  |  |  | 0.000115 ± 4e-05 s⁻¹ | 9.34e-05 ± 2.6e-05 s⁻¹ | 
A15C U31C | 0.00282 ± 0.00061 s⁻¹ | 3830 ± 1200 µM | 4.49e-05 ± 9.1e-06 s⁻¹ | 0.000359 ± 4.3e-05 s⁻¹ | 0.00104 ± 0.00023 s⁻¹ | 0.00211 ± 0.00024 s⁻¹ | 0.000136 ± 3e-05 s⁻¹
A15G U31G A39U | 0.00331 ± 0.0014 s⁻¹ |  | 3.3e-05 ± 1.1e-05 s⁻¹ | 0.000575 ± 0.00013 s⁻¹ | 0.000869 ± 0.00014 s⁻¹ | 0.00265 ± 0.00042 s⁻¹ | 0.000104 ± 1.8e-05 s⁻¹
A15G C68A | 6.63e-05 ± 4.7e-06 s⁻¹ | 131 ± 49 µM |  | 5.49e-05 ± 1.2e-05 s⁻¹ | 7.32e-05 ± 1.2e-05 s⁻¹ | 6.03e-05 ± 9.3e-06 s⁻¹ | 3.62e-05 ± 9e-06 s⁻¹
A15G C68U | 0.00322 ± 0.00055 s⁻¹ | 1130 ± 300 µM | 0.000128 ± 1.5e-05 s⁻¹ | 0.00112 ± 0.00019 s⁻¹ | 0.00139 ± 0.00047 s⁻¹ | 0.00316 ± 0.00032 s⁻¹ | 0.00032 ± 7.2e-05 s⁻¹
A15G C58G | 0.00042 ± 0.00013 s⁻¹ |  |  |  | 8.41e-05 ± 1.3e-05 s⁻¹ | 0.000197 ± 6.1e-05 s⁻¹ | 
A15C U57G | 2.37e-05 ± 5.5e-06 s⁻¹ |  | < 1e-05 s⁻¹ |  |  |  | < 1e-05 s⁻¹
A15G G32C C67G | 1.35e-05 ± 1.1e-06 s⁻¹ |  |  |  |  |  | 
A14U U54A | 0.00906 ± 0.0023 s⁻¹ | 1560 ± 560 µM | 0.000324 ± 5.9e-05 s⁻¹ | 0.00228 ± 0.00033 s⁻¹ | 0.00565 ± 0.00092 s⁻¹ | 0.00909 ± 0.002 s⁻¹ | 0.000834 ± 0.00014 s⁻¹
A15C U54G | 0.00559 ± 0.0011 s⁻¹ | 2690 ± 780 µM | 0.000104 ± 1.6e-05 s⁻¹ | 0.000903 ± 0.00029 s⁻¹ | 0.00205 ± 0.00055 s⁻¹ | 0.00475 ± 0.0006 s⁻¹ | 0.000285 ± 5.1e-05 s⁻¹
A14U U65A | 0.0015 ± 0.00017 s⁻¹ | 4460 ± 760 µM |  | 0.000203 ± 2.7e-05 s⁻¹ | 0.000449 ± 0.00012 s⁻¹ | 0.00105 ± 0.00012 s⁻¹ | 4.54e-05 ± 1.3e-05 s⁻¹
A15C A48U | 5.55e-05 ± 7.9e-06 s⁻¹ | 2840 ± 1100 µM | < 1e-05 s⁻¹ |  | 2.83e-05 ± 1.2e-05 s⁻¹ | 4.26e-05 ± 1.2e-05 s⁻¹ | 
A14U U69A | 0.000113 ± 2e-05 s⁻¹ | 802 ± 390 µM |  | 5.17e-05 ± 1.1e-05 s⁻¹ | 7.13e-05 ± 1.7e-05 s⁻¹ | 0.000122 ± 2.4e-05 s⁻¹ | 
